Patent publication US20170253633A1 (IMMATICS BIOTECHNOLOGIES, published 2017)
Non-standard residues stand in square brackets, D forms with d. No end group written: not given here. pS = N[C@@H](COP(=O)(O)O)C(=O)O

Tests used:
HLA-A*02:01 [1] = molecular target: T1, HLA-A*02:01 (human); test: UV-ligand exchange + anti-b2m ELISA; ++++ = peptide exchange yield >75%
T1 construct: MHC monomer first loaded with a UV-sensitive peptide, which is cleaved by UV and exchanged with the test peptide; captured on streptavidin plates; also called peptide-receptive MHC molecules
Source text: (§1) Candidate peptides for T cell based therapies according to the present invention were further tested for their MHC binding capacity (affinity). The individual peptide-MHC complexes were produced by UV-ligand exchange, where a UV-sensitive peptide is cleaved upon UV-irradiation, and exchanged with the peptide of interest as analyzed. Only peptide candidates that can effectively bind and stabilize the peptide-receptive MHC molecules prevent dissociation of the MHC complexes. To determine the yield of the exchange reaction, an ELISA was performed based on the detection of the light chain (β2m) of stabilized MHC complexes. The assay was performed as generally described in Rodenko et al. (Rodenko et al., 2006).
(§2) 96 well MAXISorp plates (NUNC) were coated over night with 2 ug/ml streptavidin in PBS at room temperature, washed 4× and blocked forth at 37° C. in 2% BSA containing blocking buffer. Refolded HLA-A*02:01/MLA-001 monomers served as standards, covering the range of 15-500 ng/ml. Peptide-MHC monomers of the UV-exchange reaction were diluted 100 fold in blocking buffer. Samples were incubated for 1 h at 37° C., washed four times, incubated with 2 ug/ml HRP conjugated anti-β2m for 1 h at 37° C., washed again and detected with TMB solution that is stopped with […]. Absorption was measured at 450 nm. Candidate peptides that show a high exchange yield (preferably higher than 50%, most preferred higher than 75%) are generally preferred for a generation and production of antibodies or fragments thereof, and/or T cell receptors or fragments thereof, as they show sufficient avidity to the MHC molecules and prevent dissociation of the MHC complexes.

HLA-A*02:01 [2] = molecular target: T1, HLA-A*02:01; test: UV-ligand exchange + anti-b2m ELISA; +++ = peptide exchange yield >50
Source text: as §1, §2

| Binder | peptide exchange yield (HLA-A*02:01 [1]) | peptide exchange yield (HLA-A*02:01 [2]) |
| --- | --- | --- |
| GLIDSLMAYV (gene: PKP1) | > 75% |  |
| TLGVIPESV (gene: USP48) | > 75% |  |
| SLDKGTLYI (gene: PLBD1) |  | 50 to 75% |
| YLDEIPPKFSM (gene: TACSTD2) | > 75% |  |
| NLDAATYQV (gene: SLC35A3) |  | 50 to 75% |
| GLALLYSGV (gene: ATP6V0B) | > 75% |  |
| GLAHFVNEI (gene: ZMYM2) | > 75% |  |
| SLFTGLRSI (genes: DUOX2, DUOX1) |  | 50 to 75% |
| ALLDEQQVNVLL (gene: ID1) |  | 50 to 75% |
| NLHNSYYSV (gene: CCNG2) |  | 50 to 75% |
| LLQEGEVYSA (gene: PRPF8) |  | 50 to 75% |
| RVISSVISV (gene: ELTD1) |  | 50 to 75% |
| SLQSFIHGV (gene: TMC7) |  | 50 to 75% |
| HLLDSKVPSV (gene: ITGB4) |  | 50 to 75% |
| ALDPASISV (gene: DCUN1D1) |  | 50 to 75% |
| FLDPATPRV (gene: TGIF1) |  | 50 to 75% |
| SMFGAGLTV (gene: ATP6V0B) | > 75% |  |
| IQDPVIFYV (gene: GPR126) | > 75% |  |
| ILEPSLYTV (gene: COPZ1) | > 75% |  |
| KLWGQSIQL (gene: SWT1) | > 75% |  |
| LLDLIQTKV (genes: AP2B1, AP1B1) |  | 50 to 75% |
| FLIESKLLSL (gene: DRC1) | > 75% |  |

| Binder | peptide exchange yield (HLA-A*02:01 [1]) | peptide exchange yield (HLA-A*02:01 [2]) |
| --- | --- | --- |
| GMTELYFQL (gene: PRKDC) |  | 50 to 75% |
| GLYEGLDWL (genes: ARF3, TRIM23, ARF1, ARF4) |  | 50 to 75% |
| YLARIQGFQV (gene: STAU2) | > 75% |  |
| VILDKYYFL (gene: TMPRSS4) | > 75% |  |
| ALFPHLLQPVL (gene: CSE1L) | > 75% |  |
| GLWHGMFANV (gene: DIP2B) | > 75% |  |
| FVFEPPPGV (gene: DYNC1H1) | > 75% |  |
| ALSFSSSAGPGLLKA (gene: KRT7) |  | 50 to 75% |
| TVGPGLLGV (gene: VWF) |  | 50 to 75% |
| ALLDGRVQL (gene: AGRN) | > 75% |  |
| ALADGVPVAL (gene: AP5B1) |  | 50 to 75% |
| ILLQASVQV (gene: TMPRSS4) | > 75% |  |
| GVALTVTGV (gene: FLOT2) | > 75% |  |
| FLTPPLLSV (gene: AP2A1) | > 75% |  |
| YLPDSLTQL (gene: LRRC1) | > 75% |  |
| AMAELRVVV (gene: CYP4F22) | > 75% |  |
| SLLGGITVV (gene: SPAG9) | > 75% |  |
| FLI[pS]LIISV (gene: TAS2R9) [FLIJLIISV] |  | 50 to 75% |
| AVVSSVNTV (gene: SNCG) |  | 50 to 75% |
| SLFDGIATGL (gene: DNMT3A) | > 75% |  |
| ALIGDDVGL (gene: C17orf85) |  | 50 to 75% |
| GLDPLGYEIQL (gene: NUP107) | > 75% |  |

| Binder | peptide exchange yield (HLA-A*02:01 [1]) | peptide exchange yield (HLA-A*02:01 [2]) |
| --- | --- | --- |
| YLFPETEFI (gene: TBX3) |  | 50 to 75% |
| ILDEMRAQL (gene: OAS3) |  | 50 to 75% |
| YTLSKTEFL (gene: S100A11) | > 75% |  |
| SLLRVGWSV (genes: BSCL2, HNRNPUL2) | > 75% |  |
| ALASLENHV (gene: TRIM33) |  | 50 to 75% |
| NLAGVYSEV (gene: DRG1) | > 75% |  |
| WLSTSIPEA (gene: FASN) | > 75% |  |
| FLDDGNQMLL (gene: DYNC2H1) | > 75% |  |
| ILLDTPLFLL (gene: SERHL2) |  | 50 to 75% |
| YLIGLDPENLAL (gene: CROT) |  | 50 to 75% |
| SLDVVNLLV (gene: ANKRD50) | > 75% |  |
| SIAAYNPVV (gene: DHRS2) | > 75% |  |
| QMFEGQILDV (gene: AIM1L) |  | 50 to 75% |
| FIPDFAVAI (gene: COL6A3) | > 75% |  |
| VLKVFLENV | > 75% |  |
| YILEGEPGKV (gene: SRP68) | > 75% |  |
| TLTSKLYSL (gene: UQCR10) | > 75% |  |
| KVFGGFQVV (gene: HES1) | > 75% |  |
| SLSDVRVIV (gene: RALGAPA2) | > 75% |  |
| KLTNGIWVL (gene: AP1B1) |  | 50 to 75% |
| ILTSIQSLL (genes: UBE2A, UBE2B) | > 75% |  |
| IITDLLRSV (gene: FUBP1) | > 75% |  |
